Assay results as given in article PMC12499500, “Structural Basis of GABAB Receptor Activation during Evolution” (Advanced Science, 2025).

How the values were obtained:
Assay in all cases: cell-based or functional assay
[1] = target: T1, human GB2 Δ760 (human, UniProt O75899 42-760)
T1 sequence (looked up): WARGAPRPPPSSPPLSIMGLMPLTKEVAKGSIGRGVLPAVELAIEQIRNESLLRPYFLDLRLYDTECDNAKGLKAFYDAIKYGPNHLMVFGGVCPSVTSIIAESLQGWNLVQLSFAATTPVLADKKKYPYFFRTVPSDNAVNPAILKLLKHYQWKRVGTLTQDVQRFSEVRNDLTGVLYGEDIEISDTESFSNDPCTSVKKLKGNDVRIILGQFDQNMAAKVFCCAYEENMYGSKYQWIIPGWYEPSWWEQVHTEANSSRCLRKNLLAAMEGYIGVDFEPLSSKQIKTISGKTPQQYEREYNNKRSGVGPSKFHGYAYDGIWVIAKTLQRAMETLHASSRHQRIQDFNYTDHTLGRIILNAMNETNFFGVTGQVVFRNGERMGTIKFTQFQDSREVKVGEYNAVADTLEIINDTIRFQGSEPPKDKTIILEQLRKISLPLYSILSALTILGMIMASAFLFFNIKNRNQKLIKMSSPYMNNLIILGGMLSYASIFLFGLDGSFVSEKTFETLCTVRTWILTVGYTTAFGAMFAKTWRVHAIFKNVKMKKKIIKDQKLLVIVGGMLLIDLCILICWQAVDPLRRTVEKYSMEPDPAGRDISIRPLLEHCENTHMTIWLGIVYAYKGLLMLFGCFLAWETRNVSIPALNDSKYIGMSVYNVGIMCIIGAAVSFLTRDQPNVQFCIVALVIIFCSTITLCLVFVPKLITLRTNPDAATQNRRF

[2] = target: T2, human GB2 Δ765 (human, UniProt O75899 42-765)
T2 sequence (looked up): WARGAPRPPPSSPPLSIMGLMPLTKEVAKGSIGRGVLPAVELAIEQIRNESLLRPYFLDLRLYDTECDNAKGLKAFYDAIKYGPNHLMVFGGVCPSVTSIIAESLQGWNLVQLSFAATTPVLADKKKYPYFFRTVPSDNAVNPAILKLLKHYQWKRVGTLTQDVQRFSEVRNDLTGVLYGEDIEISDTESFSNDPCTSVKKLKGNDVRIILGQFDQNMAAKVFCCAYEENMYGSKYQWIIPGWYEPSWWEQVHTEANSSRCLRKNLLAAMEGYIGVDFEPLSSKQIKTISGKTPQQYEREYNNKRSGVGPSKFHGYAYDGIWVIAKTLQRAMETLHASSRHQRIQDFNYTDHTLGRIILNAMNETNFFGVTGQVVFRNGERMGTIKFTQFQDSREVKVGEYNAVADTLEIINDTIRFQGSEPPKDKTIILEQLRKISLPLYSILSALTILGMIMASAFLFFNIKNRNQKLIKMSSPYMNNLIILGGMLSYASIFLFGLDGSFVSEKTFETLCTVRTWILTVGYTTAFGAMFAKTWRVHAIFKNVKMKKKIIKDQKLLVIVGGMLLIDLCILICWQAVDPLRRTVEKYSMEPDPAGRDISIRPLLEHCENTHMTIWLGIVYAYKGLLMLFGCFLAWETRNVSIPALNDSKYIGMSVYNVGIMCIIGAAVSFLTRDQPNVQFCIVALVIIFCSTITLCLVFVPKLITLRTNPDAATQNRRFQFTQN

[3] = target: dGB2 4 × GSG (ordered C-terminus 717–728 replaced by four glycine-serine-glycine) (Drosophila melanogaster, UniProt Q9BML6 1-1220, 4 × GSG: residues 717–728 replaced with four consecutive glycine-serine-glycine)
[4] = target: T3, human GB2 Δ772 (human, UniProt O75899 42-772)
T3 sequence (looked up): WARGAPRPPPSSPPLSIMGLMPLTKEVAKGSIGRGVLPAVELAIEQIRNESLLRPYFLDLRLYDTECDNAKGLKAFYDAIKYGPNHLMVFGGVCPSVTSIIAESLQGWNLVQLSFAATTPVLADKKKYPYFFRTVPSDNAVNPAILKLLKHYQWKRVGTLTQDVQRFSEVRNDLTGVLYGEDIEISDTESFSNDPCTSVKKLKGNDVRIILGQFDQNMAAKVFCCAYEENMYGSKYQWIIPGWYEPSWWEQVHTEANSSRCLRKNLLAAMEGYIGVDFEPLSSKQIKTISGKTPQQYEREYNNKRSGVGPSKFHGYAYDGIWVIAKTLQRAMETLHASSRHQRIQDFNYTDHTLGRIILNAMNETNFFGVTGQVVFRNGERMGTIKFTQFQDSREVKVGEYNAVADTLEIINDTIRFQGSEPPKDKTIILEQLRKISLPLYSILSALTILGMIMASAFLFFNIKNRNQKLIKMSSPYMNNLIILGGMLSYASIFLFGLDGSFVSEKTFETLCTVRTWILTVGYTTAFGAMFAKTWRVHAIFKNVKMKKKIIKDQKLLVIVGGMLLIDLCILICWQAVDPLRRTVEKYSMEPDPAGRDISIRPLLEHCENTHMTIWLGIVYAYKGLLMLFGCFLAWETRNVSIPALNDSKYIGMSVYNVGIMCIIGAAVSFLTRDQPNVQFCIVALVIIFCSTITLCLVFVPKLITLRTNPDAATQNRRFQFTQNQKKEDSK

[5] = target: T4, human GB2 Δ753 (human, UniProt O75899 42-753)
T4 sequence (looked up): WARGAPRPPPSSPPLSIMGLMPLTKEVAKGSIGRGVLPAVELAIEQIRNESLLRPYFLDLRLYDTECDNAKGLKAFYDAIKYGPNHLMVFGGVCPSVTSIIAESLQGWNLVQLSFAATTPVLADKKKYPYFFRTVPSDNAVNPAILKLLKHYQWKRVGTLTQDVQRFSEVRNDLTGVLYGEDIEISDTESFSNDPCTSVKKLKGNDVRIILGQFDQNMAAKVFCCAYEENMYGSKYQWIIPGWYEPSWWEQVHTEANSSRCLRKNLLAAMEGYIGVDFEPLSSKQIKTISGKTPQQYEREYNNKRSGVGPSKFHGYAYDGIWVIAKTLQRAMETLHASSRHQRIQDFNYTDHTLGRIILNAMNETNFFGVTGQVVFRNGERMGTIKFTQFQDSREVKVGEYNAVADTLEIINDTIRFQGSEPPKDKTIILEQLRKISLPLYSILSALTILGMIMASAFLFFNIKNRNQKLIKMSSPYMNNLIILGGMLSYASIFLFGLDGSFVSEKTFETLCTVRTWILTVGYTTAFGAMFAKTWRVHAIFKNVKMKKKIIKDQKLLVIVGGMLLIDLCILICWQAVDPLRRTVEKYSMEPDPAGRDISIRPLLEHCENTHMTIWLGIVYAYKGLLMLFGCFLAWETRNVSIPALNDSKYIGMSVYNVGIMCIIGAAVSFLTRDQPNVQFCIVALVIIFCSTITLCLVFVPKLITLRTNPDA

[6] = target: dGB2 12A (ordered C-terminus 717–728 replaced by 12 alanines) (Drosophila melanogaster, UniProt Q9BML6 1-1220, 12A: residues 717–728 replaced with 12 consecutive alanine residues)
Sequence of dGB2 12A (ordered C-terminus 717–728 replaced by 12 alanines) (Q9BML6 entry or part of it with the stated changes): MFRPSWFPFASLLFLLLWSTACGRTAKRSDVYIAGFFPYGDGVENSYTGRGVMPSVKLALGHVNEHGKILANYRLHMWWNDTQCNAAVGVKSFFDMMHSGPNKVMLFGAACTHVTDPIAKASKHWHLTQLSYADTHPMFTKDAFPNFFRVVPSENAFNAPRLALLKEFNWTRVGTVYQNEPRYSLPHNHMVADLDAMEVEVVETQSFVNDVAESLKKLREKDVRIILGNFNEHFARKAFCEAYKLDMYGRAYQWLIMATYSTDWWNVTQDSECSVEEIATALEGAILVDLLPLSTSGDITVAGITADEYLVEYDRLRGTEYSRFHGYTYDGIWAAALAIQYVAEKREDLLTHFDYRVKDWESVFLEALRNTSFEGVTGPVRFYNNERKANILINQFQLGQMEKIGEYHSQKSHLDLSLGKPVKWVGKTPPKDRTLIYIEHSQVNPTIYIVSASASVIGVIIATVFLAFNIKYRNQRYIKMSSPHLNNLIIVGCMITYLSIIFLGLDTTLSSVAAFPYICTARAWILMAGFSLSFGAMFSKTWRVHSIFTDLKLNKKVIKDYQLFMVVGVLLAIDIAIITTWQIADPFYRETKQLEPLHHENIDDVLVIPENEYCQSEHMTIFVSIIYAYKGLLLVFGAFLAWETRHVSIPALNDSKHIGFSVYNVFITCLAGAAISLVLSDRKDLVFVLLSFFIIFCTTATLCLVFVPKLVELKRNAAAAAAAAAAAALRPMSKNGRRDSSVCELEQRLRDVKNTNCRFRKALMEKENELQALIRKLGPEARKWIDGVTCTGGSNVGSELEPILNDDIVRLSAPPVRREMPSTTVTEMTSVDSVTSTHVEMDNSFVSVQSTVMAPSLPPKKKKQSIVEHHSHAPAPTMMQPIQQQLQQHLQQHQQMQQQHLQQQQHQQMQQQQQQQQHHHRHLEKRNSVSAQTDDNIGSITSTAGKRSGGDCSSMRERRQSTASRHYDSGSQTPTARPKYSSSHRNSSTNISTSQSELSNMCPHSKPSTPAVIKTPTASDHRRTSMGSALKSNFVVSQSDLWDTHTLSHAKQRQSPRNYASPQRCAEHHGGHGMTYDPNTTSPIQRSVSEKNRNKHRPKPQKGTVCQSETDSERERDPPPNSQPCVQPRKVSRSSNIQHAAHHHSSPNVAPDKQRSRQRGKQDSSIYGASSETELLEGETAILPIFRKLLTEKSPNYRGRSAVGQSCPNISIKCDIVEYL

Sequence of dGB2 4 × GSG (ordered C-terminus 717–728 replaced by four glycine-serine-glycine) (Q9BML6 entry or part of it with the stated changes): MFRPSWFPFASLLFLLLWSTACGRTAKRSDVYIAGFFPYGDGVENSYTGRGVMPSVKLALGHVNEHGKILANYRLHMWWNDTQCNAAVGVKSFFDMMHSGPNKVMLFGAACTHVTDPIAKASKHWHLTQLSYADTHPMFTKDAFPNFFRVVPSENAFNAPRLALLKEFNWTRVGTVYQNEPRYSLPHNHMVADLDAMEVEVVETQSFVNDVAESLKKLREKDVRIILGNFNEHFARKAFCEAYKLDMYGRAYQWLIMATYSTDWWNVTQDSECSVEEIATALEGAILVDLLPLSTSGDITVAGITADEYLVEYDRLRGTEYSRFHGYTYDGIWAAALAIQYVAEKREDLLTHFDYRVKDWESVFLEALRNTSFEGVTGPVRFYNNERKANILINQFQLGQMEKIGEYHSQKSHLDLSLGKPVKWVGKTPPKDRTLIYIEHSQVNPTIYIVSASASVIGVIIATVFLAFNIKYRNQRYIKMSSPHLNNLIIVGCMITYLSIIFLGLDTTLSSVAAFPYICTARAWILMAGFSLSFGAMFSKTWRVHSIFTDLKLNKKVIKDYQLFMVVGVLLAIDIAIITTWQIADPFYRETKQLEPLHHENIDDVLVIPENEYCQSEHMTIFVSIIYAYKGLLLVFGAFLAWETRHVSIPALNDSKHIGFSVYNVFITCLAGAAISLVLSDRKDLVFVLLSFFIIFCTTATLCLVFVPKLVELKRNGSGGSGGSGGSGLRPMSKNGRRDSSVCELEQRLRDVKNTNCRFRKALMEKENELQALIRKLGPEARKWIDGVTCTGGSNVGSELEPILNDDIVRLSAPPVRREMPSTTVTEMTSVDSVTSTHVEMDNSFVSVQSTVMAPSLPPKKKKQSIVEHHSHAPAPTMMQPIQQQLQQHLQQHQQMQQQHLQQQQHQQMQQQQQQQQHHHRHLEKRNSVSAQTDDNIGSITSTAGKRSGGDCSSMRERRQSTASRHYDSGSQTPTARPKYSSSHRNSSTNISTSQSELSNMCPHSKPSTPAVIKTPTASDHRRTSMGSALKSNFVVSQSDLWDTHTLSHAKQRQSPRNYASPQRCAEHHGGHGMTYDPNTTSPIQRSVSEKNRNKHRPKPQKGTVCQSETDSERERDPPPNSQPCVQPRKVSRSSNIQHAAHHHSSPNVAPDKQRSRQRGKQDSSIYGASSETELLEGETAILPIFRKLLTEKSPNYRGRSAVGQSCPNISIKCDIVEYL

B1: dominant-negative Gαi1 (S47N, G203A, E245A, A326S) (natural protein, human)
chain: MGCTLSAEDKAAVERSKMIDRNLREDGEKAAREVKLLLLGAGESGKNTIVKQMKIIHEAGYSEEECKQYKAVVYSNTIQSIIAIIRAMGRLKIDFGDSARADDARQLFVLAGAAEEGFMTAELAGVIKRLWKDSGVQACFNRSREYQLNDSAAYYLNDLDRIAQPNYIPTQQDVLRTRVKTTGIVETHFTFKDLHFKMFDVGAQRSERKKWIHCFEGVTAIIFCVALSDYDLVLAEDEEMNRMHASMKLFDSICNNKWFTDTSIILFLNKKDLFEEKIKKSPLTICYPEYAGSNTYEEAAAYIQCQFEDLNKRKDTKEIYTHFTCSTDTKNVQFVFDAVTDVIIKNNLKDCGLF
GABA-induced intracellular Ca2+ release, HEK293 cells co-transfected with GB1ΔCC and the GB2 truncation, increase in EC50 against Δ780 of GB2 [1]: 16.2 fold | GABA-induced intracellular Ca2+ release, HEK293 cells co-transfected with GB1ΔCC and the GB2 truncation, reduction in E max against Δ780 of GB2 [1]: 39 % reduction in E max | GABA-induced intracellular Ca2+ release, HEK293 cells co-transfected with GB1ΔCC and the GB2 truncation, increase in EC50 against Δ780 of GB2 [2]: 9.4 fold | GABA-induced intracellular Ca2+ release, HEK293 cells co-transfected with GB1ΔCC and the GB2 truncation, reduction in E max against Δ780 of GB2 [2]: 22 % reduction in E max | BRET assay of GABA-induced dissociation of Gαi1 and Gβγ in HEK293 cells, change of EC50 against wild-type dGB2 [3]: 3 fold | GABA-induced intracellular Ca2+ release, HEK293 cells co-transfected with GB1ΔCC and the GB2 truncation, increase in EC50 against Δ780 of GB2 [4]: 6.5 fold | GABA-induced intracellular Ca2+ release, HEK293 cells co-transfected with GB1ΔCC and the GB2 truncation, increase in EC50 against Δ780 of GB2 [5]: 30.8 fold | GABA-induced intracellular Ca2+ release, HEK293 cells co-transfected with GB1ΔCC and the GB2 truncation, reduction in E max against Δ780 of GB2 [5]: 76 % reduction in E max | BRET assay of GABA-induced dissociation of Gαi1 and Gβγ in HEK293 cells, change of EC50 against wild-type dGB2 [6]: 8.8 fold | GABA-induced intracellular Ca2+ release (Gqi9), change of EC50 of GABA against wild-type dGB2 [6]: 2 fold
